From paper PMC4847857

Key:
[1] = target: ATP-binding cassette A1 (human (endogenous in THP-1)) (UniProt O95477)
[2] = target: ATP-binding cassette G1 (human (endogenous in THP-1)) (UniProt P45844)

Sequence of UniProt O95477 (O95477 whole entry): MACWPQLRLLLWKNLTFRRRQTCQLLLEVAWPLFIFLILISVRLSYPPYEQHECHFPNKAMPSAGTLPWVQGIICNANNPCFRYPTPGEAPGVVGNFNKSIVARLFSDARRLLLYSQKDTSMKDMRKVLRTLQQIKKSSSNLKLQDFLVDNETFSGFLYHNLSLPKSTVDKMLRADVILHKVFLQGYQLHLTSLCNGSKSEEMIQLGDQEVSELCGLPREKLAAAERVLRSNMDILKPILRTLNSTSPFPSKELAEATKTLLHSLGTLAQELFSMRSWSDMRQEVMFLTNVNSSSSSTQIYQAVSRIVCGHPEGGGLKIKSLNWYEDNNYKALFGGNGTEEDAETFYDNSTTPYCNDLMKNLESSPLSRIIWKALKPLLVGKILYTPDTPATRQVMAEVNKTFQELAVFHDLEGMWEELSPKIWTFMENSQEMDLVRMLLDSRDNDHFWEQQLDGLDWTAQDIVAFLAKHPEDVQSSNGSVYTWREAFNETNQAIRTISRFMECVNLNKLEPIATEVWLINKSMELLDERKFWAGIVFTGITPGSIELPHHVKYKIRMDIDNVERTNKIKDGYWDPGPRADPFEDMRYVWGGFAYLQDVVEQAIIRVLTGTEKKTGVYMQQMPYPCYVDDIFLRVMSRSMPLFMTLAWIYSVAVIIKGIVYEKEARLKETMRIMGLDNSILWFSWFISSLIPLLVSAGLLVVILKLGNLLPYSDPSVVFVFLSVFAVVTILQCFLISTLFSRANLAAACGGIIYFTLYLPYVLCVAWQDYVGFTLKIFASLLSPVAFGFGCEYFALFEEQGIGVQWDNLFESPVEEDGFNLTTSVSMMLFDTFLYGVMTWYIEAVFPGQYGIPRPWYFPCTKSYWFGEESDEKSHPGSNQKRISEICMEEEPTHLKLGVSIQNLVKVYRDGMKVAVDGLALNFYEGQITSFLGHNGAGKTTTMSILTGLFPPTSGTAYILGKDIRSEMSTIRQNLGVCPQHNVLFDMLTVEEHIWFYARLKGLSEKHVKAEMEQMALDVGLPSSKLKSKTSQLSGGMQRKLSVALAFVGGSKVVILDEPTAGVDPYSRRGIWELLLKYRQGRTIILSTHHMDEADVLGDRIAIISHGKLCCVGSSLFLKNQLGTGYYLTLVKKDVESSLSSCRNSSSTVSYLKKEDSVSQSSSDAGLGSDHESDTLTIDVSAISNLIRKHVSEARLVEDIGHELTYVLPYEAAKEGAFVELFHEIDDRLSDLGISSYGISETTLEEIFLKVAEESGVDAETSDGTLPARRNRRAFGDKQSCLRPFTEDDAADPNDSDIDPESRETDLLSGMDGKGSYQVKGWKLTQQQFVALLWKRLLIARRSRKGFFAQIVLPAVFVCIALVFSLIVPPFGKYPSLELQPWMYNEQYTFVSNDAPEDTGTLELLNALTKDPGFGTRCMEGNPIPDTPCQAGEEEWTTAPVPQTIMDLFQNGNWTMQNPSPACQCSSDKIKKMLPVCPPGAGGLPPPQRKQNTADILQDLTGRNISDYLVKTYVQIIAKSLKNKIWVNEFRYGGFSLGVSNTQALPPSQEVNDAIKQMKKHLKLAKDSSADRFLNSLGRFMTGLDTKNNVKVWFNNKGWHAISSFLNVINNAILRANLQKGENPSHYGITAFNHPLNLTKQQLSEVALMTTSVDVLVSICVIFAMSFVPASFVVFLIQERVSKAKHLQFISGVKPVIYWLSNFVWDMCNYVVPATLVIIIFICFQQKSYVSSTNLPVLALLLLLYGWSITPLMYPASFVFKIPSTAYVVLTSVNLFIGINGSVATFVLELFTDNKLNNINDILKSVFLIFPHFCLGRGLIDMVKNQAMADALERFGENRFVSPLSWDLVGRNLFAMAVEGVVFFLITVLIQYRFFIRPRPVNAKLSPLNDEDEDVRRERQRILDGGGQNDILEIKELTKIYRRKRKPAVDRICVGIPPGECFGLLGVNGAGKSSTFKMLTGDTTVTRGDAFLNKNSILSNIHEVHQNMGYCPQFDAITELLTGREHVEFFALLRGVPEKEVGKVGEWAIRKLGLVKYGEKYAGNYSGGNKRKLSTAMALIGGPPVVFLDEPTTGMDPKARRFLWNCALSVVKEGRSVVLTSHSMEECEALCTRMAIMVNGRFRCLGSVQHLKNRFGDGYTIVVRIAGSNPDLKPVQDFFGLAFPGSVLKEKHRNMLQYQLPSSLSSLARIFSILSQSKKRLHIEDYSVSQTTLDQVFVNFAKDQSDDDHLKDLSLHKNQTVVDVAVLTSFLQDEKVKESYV

Q: Which results are given for “human apoA-1 from human plasma (from UniProt P02647 19-267) (ligand)”?
A: cholesterol efflux from [H^3]-cholesterol-loaded THP-1 macrophages to apoA-I (10 μg/ml) after heat-killed L. acidophilus K301; no effect in the absence of apoA-I [1]: 2.3 fold; cholesterol efflux from [H^3]-cholesterol-loaded THP-1 macrophages to apoA-I (10 μg/ml) after heat-killed L. acidophilus K301; no effect in the absence of apoA-I [2]: 2.3 fold
